Laboratory results published in IntAct's records for PubMed 35512704.

B1: Speckle-type POZ protein (Homo sapiens), O43791 (parent)
chain: MSRVPSPPPPAEMSSGPVAESWCYTQIKVVKFSYMWTINNFSFCREEMGEVIKSSTFSSGANDKLKWCLRVNPKGLDEESKDYLSLYLLLVSCPKSEVRAKFKFSILNAKGEETKAMESQRAYRFVQGKDWGFKKFIRRDFLLDEANGLLPDDKLTLFCEVSVVQDSVNISGQNTMNMVKVPECRLADELGGLWENSRFTDCCLCVAGQEFQAHKAILAARSPVFSAMFEHEMEESKKNRVEINDVEPEVFKEMMCFIYTGKAPNLDKMADDLLAAADKYALERLKVMCEDALCSNLSVENAAEILILADLHSADQLKTQAVDFINYHASDVLETSGWKSMVVSHPHLVAEAYRSLASAQCPFLGPPRKRLKQS
partner: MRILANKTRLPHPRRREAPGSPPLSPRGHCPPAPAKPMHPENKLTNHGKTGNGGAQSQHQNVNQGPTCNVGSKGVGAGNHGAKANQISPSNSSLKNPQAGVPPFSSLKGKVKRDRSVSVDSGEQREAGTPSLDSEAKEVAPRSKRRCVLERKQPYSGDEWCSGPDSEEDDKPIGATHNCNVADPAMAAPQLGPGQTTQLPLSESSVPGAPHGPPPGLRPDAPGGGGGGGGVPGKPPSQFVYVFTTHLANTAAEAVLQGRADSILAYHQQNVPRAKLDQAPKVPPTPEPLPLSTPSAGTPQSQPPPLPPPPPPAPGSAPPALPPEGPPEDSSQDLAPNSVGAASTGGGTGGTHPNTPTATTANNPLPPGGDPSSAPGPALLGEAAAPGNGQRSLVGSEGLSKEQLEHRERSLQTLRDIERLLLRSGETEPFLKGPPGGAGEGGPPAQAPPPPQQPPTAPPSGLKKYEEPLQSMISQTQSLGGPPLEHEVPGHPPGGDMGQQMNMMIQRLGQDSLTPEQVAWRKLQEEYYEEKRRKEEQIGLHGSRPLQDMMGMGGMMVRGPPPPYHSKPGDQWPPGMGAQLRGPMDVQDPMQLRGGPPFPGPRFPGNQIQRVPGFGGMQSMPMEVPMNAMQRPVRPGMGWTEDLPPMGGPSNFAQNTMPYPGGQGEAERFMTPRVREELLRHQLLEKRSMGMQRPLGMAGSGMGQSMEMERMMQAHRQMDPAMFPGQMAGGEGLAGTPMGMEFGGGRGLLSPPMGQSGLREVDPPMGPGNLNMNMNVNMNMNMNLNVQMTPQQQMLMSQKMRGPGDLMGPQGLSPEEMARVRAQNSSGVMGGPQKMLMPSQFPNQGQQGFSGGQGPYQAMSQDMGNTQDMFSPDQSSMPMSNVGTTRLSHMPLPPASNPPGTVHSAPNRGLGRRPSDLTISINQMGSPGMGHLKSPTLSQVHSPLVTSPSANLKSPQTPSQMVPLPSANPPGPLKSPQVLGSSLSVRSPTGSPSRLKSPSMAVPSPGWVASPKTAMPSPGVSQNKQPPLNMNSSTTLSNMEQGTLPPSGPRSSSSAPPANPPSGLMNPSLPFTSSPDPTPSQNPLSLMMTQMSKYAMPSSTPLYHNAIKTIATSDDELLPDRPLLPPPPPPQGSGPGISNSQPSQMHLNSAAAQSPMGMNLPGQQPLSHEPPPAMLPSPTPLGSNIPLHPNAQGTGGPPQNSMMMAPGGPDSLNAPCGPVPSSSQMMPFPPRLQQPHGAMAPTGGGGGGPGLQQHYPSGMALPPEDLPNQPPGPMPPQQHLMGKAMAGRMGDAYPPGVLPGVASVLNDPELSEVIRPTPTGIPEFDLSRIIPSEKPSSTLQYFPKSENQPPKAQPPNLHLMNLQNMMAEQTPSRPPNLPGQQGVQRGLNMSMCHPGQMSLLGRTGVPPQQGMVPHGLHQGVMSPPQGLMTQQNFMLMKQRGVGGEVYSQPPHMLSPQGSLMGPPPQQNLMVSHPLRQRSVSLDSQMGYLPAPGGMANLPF

Variants of: B1
Settings: with bcl9l_human BCL9L
MSRVPSPPPPAEMSSGPVAESWCYTQIKVVKFSYMWTINNFSFCREEMGEVIKSSTFSSGANDKLKWCLRVNPKGLDEESKDYLSLYLLLVSCPKSEVRAKCKFSILNAKGEETKAMESQRAYRFVQGKDWGFKKFIRRDFLLDEANGLLPDDKLTLFCEVSVVQDSVNISGQNTMNMVKVPECRLADELGGLWENSRFTDCCLCVAGQEFQAHKAILAARSPVFSAMFEHEMEESKKNRVEINDVEPEVFKEMMCFIYTGKAPNLDKMADDLLAAADKYALERLKVMCEDALCSNLSVENAAEILILADLHSADQLKTQAVDFINYHASDVLETSGWKSMVVSHPHLVAEAYRSLASAQCPFLGPPRKRLKQS [F102C] was tested, and the “effect of a mutation on the interaction” value was “with no effect”.

Variants of: B1
Settings: with bcl9l_human BCL9L
Remark: another data set of the same source
MSRVPSPPPPAEMSSGPVAESWCYTQIKVVKFSYMWTINNFSFCREEMGEVIKSSTFSSGANDKLKWCLRVNPKGLDEESKDYLSLCLLLVSCPKSEVRAKFKFSILNAKGEETKAMESQRAYRFVQGKDWGFKKFIRRDFLLDEANGLLPDDKLTLFCEVSVVQDSVNISGQNTMNMVKVPECRLADELGGLWENSRFTDCCLCVAGQEFQAHKAILAARSPVFSAMFEHEMEESKKNRVEINDVEPEVFKEMMCFIYTGKAPNLDKMADDLLAAADKYALERLKVMCEDALCSNLSVENAAEILILADLHSADQLKTQAVDFINYHASDVLETSGWKSMVVSHPHLVAEAYRSLASAQCPFLGPPRKRLKQS [Y87C] was tested, and the “effect of a mutation on the interaction” value was “with no effect”.

Variants of: B1
Settings: with bcl9l_human BCL9L
Remark: another data set of the same source
MSRVPSPPPPAEMSSGPVAESWCYTQIKVVKFSYMWTINNFSFCREEMGEVIKSSTFSSGANDKLKWCLRVNPKGLDEESKDYLSLYLLLVSCPKSEVRAKFKFSILNAKGEETKAMESQRAYRFVQGKDWGVKKFIRRDFLLDEANGLLPDDKLTLFCEVSVVQDSVNISGQNTMNMVKVPECRLADELGGLWENSRFTDCCLCVAGQEFQAHKAILAARSPVFSAMFEHEMEESKKNRVEINDVEPEVFKEMMCFIYTGKAPNLDKMADDLLAAADKYALERLKVMCEDALCSNLSVENAAEILILADLHSADQLKTQAVDFINYHASDVLETSGWKSMVVSHPHLVAEAYRSLASAQCPFLGPPRKRLKQS [F133V] was tested, and the “effect of a mutation on the interaction” value was “with no effect”.

Variants of: B1
Settings: with bcl9l_human BCL9L
Remark: another data set of the same source
MSRVPSPPPPAEMSSGPVAESWCYTQIKVVKFSYMWTINNFSFCREEMGEVIKSSTFSSGANDKLKWCLRVNPKGLDEESKDYLSLYLLLVSCPKSEVRAKFKFSILNAKGEETKAMESQRAYRFVQGKDWGLKKFIRRDFLLDEANGLLPDDKLTLFCEVSVVQDSVNISGQNTMNMVKVPECRLADELGGLWENSRFTDCCLCVAGQEFQAHKAILAARSPVFSAMFEHEMEESKKNRVEINDVEPEVFKEMMCFIYTGKAPNLDKMADDLLAAADKYALERLKVMCEDALCSNLSVENAAEILILADLHSADQLKTQAVDFINYHASDVLETSGWKSMVVSHPHLVAEAYRSLASAQCPFLGPPRKRLKQS [F133L] was tested, and the “effect of a mutation on the interaction” value was “with no effect”.
